From US20160347844A1 (Dana-Farber, published 2016)

T1: recombinant mRGMb-HIS (R&D) (mouse, UniProt Q7TQ33 49-415, limits assumed)
T1 construct: Bought (R&D); also called monomeric mRGMb-HIS; not shown: HIS tag
T1 sequence: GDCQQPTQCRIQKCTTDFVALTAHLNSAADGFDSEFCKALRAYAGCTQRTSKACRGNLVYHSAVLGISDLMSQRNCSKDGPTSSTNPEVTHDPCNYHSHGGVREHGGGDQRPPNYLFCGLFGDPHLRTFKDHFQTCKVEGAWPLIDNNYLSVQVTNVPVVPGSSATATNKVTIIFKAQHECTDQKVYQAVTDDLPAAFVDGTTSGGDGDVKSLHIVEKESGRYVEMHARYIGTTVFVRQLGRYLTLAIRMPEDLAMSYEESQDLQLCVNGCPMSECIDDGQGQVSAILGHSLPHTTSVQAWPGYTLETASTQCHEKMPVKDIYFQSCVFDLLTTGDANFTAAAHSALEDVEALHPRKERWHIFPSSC

T2: mouse RGMb on mRGMb transfected 300 cells (mouse, UniProt Q7TQ33 49-415)
T2 construct: also called 300-mRGMb cells; DRAGON
T2 sequence: T1 sequence

B1: mPD-L2-hIgG (R&D) (Fc fusion, mouse, UniProt Q9WUL5 20-219, looked up)
chain: LFTVTAPKEVYTVDVGSSVSLECDFDRRECTELEGIRASLQKVENDTSLQSERATLLEEQLPLGKALFHIPSVQVRDSGQYRCLVICGAAWDYKYLTVKVKASYMRIDTRILEVPGTGEVQLTCQARGYPLAEVSWQNVSVPANTSHIRTPEGLYQVTSVLRLKPQPSRNFSCMFWNAHMKELTSAIIDPLSRMEPKVPR
notes: The text of the result says only 'PD-L2-Ig'; also called PD-L2-Ig; mPD-L2-Ig; not shown: human IgG part of the bought fusion protein
B2: recombinant mouse BMP-4 (R&D) (ligand)
chain: SPKHHPQRSRKKNKNCRRHSLYVDFSDVGWNDWIVAPPGYQAFYCHGDCPFPLADHLNSTNHAIVQTLVNSVNSSIPKACCVPTELSAISMLYLDEYDKVVLKNYQEMVVEGCGCR
notes: Bought; also called mBMP-4
B3: recombinant mouse BMP-2 (GIBCO) (ligand)
chain: QAKHKQRKRLKSSCKRHPLYVDFSDVGWNDWIVAPPGYHAFYCHGECPFPLADHLNSTNHAIVQTLVNSVNSKIPKACCVPTELSAISMLYLDENEKVVLKNYQDMVVEGCGCR
notes: Bought; also called mBMP-2
B4: mouse PD-L2 on mPD-L2 transfected 300 cells (ligand, UniProt Q9WUL5 20-247, looked up)
chain: LFTVTAPKEVYTVDVGSSVSLECDFDRRECTELEGIRASLQKVENDTSLQSERATLLEEQLPLGKALFHIPSVQVRDSGQYRCLVICGAAWDYKYLTVKVKASYMRIDTRILEVPGTGEVQLTCQARGYPLAEVSWQNVSVPANTSHIRTPEGLYQVTSVLRLKPQPSRNFSCMFWNAHMKELTSAIIDPLSRMEPKVPRTWPLHVFIPACTIALIFLAIVIIQRKRI
notes: whole, on cells; also called 300-mPD-L2

Legend:
[1] = target: T1, recombinant mRGMb-HIS (R&D); test: ELISA, PD-L2-Ig captured through mRGMb-HIS on BMP-2/4-coated plate, anti-hIgG-HRP
Protocol: (§1) To determine if RGMb binds PD-L2 and BMP-2/4 simultaneously, 96-well ELISA plates were coated with BMP-2/4 as above. mPD-L2-hIgG1/IgA, mPD-L2-hIgG (R&D), mPD-L1-hIgG (R&D) or control-Ig fusion proteins at 10 µg/ml were preincubated with 10 μg/ml mRGMb-HIS (R&D) or buffer alone for 15 min. at room temperature (RT), then added to the plates and incubated for 1h at 37° C. Alternatively, 10 μg/ml mRGMb-HIS (R&D) or buffer alone was added first to the plates and incubated for 1h at 37° C. After wash, mPD-L2-Ig or control-Ig fusion proteins were added and incubated for 1 h at 37° C. Fab₂ goat anti-hIgG-HRP (Jackson ImmunoResearch Laboratories) at 1:10000 was used for detection.

mPD-L2-hIgG (R&D) [2] = target: B1; test: ELISA, PD-L2-Ig added to BMP-4-coated plate without RGMb, anti-hIgG-HRP (FIG. 1E)
Text: (§2) FIG. 1 includes nine panels, identified as panels (A), (B), (C), (D), (E), (F), (G), (H), and (I), which show the blocking capacities of RGMb and PD-L2 mAbs and a model for RGMb, PD-L2, Neogenein, BMP, and BMP-receptor interactions. Panels A-C show the capacities of RGMb mAbs and PD-L2 mAbs to block RGMb binding to PD-L2 or to block PD-1 to PD-L2, as determined by cell conjugation assay. […] Binding of mRGMb-HIS was detected by anti-penta-HIS-HRP. […] Binding of Ig fusion proteins was detected with anti-hIgG-HRP. Similar results were also seen for BMP-2. […] Data shown in Panels 1A-1C and 1F-1H are representative of 2 or more independent experiments.
as §1

[3] = target: T1, recombinant mRGMb-HIS (R&D); test: ELISA, BMP-4-coated plate, mRGMb-HIS plus PD-L2-Ig, anti-hIgG-HRP
Text: as §2, §1

[4] = target: T1, recombinant mRGMb-HIS (R&D); test: ELISA, BMP-2-coated plate, mRGMb-HIS plus PD-L2-Ig, anti-hIgG-HRP
Protocol: as §1

mPD-L2-hIgG (R&D) [5] = target: B1; test: ELISA, PD-L2-Ig added to BMP-2-coated plate without RGMb, anti-hIgG-HRP
Protocol: as §1

[6] = target: T2, mouse RGMb on mRGMb transfected 300 …; test: cell conjugation assay / flow cytometry / ELISA of FIG. 1

## B1
[1]
  binding result: binds

## B2
mPD-L2-hIgG (R&D) [2]
  binding result: no binding
[3]
  binding result: binds

## B3
[4]
  binding result: binds
mPD-L2-hIgG (R&D) [5]
  binding result: no binding

## B4
[6]
  binding result: binds
